Source: the supplement of paper PMC10567573

B1: MYBL2 (parent)
chain: IAKHLKGRLGKQCRERWHNHLNPE
B2: GFOD1 (parent)
chain: SDDFCTFQMVLEGGVCCTVTLNFN

Variants of: B1
Assay: protein stability index of a GFP-peptide fusion (GPS, HEK-293T) (PSI 1-6); higher = more stable
Conditions: c terminus: a fixed tail appended
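Note: lentivirally expressed fusions sorted by FACS into six bins by GFP to DsRed ratio, PSI derived from sequencing read proportions per bin multiplied by bin number.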

Protein stability index, by site and new letter:
W17: L 2.96; G 2.52; Q 2.71; S 2.53; K 2.94; T 2.69; D 2.4; Y 2.38; P 3.13; V 2.08; C 2.3; N 2.8; H 2.69; I 2.14; F 2.81; M 2.31; A 2.35; E 3.22; R 2.4
C13: F 1.65; G 2.54; N 3.21; S 2.14; D 2.57; A 2.55; M 2.01; W 2.19; Q 1.96; K 2.34; V 1.97; I 2.58; T 2.08; R 2.3; P 2.57; H 2.33; Y 1.64; L 1.87; E 2.68
E15: H 1.25; K 2.18; C 2.38; W 3.6; N 1.69; A 2.17; L 2.48; I 1.96; G 1.9; M 3.02; P 1.63; Q 1.49; Y 2.12; D 1.73; V 2.12; S 1.23; R 1.96; F 2.26; T 2.5
L21: F 1.91; R 2.34; T 2.3; I 2.29; Y 1.85; S 1.97; N 2.22; P 2.97; C 1.69; A 2.16; W 1.79; M 1.47; E 2.88; K 2.79; Q 2.47; V 2.23; D 2.17; H 1.75; G 1.98
R16: N 2; H 1.58; D 2.08; L 2.06; S 1.85; W 4.03; M 2.39; Y 2.41; F 2.19; P 1.96; C 2.13; K 2.66; T 2.13; G 1.71; A 2.21; I 1.54; V 2; E 2.58; Q 2.12
Q12: N 1.38; M 1.92; W 1.93; D 1.93; G 3.02; Y 2.33; E 1.92; A 1.29; P 1.54; I 2.97; V 1.61; L 2.32; S 2.77; R 2.44; C 2.53; K 1.51; H 2.38; T 1.55; F 2.08
N19: I 3.11; W 2.24; L 2.63; G 2.8; K 1.72; H 1.73; D 2.05; F 2.58; S 1.91; E 2.24; P 1.02; Q 2.02; A 1.41; R 2.31; T 1.9; C 1.54; Y 3.59; V 2.05; M 1.63
K11: R 1.95; D 2.47; P 1.75; E 2.46; G 3.92; Q 1.79; T 1.67; N 2.43; F 1.4; I 1.97; L 2.36; C 2.09; M 2.69; H 2.41; S 2.43; A 2.06; W 2.44; V 2.12; Y 2.02
H20: Q 1.84; C 2.44; F 1.92; R 1.21; V 2.58; P 2.41; N 2.1; W 2.57; M 1.06; I 1.77; D 1.96; L 2.42; E 2.35; K 2.18; G 1.87; Y 1.62; S 1.54; A 1.69; T 2.09
N22: V 2.44; Q 2.05; T 2.53; A 1.73; H 1.91; K 1.51; L 2.24; Y 2.45; C 1.92; I 2.09; G 1.43; F 2.7; M 2.58; D 2.06; R 1.64; P 1.35; W 2.6; E 2.42; S 2.29
R14: Q 2.52; C 1.77; L 1.63; S 1.5; V 1.74; M 1.29; E 2.59; H 2.3; I 1.83; N 2.62; G 2.03; A 2; T 2.61; F 1.47; K 1.87; Y 2.12; W 1.82; D 2.56; P 2.64
G10: R 1.67; Q 1.96; S 1.99; T 2.16; Y 2.49; P 2.22; V 2.54; W 2.56
P23: G 2.03; A 2.62; D 1.89; R 2.11; W 1.98; N 1.93; H 2.1; S 1.49; E 1.85; C 2.4; I 2.14; Y 1.33; V 2.46; L 1.66; M 2.21; T 2.19; K 2.26; Q 1.79; F 3.01
E24: L 2.54; N 2.35; S 1.81; M 3.97; C 1.41; Q 1.4; R 2.75; H 2; K 2.68; T 2.21; W 1.79; P 2.12; D 2.34; A 2.08; G 3; I 2.27; F 2.82; V 3.05
H18: L 1.55; R 1.56; A 1.61; T 2.97; G 1.85; S 1.47; V 1.1; I 2.73; K 2.87; C 1.8; N 2.33; E 1.82; Y 1.67; F 2.24; Q 2.43; D 1.85; P 1.9

Variants of: B2
Assay: as above
Conditions: c terminus: a fixed tail appended

Protein stability index, by site and new letter:
F4: I 3.55; D 2.46; S 2.38; H 1.87; K 1.77; V 2.91; R 3.19; M 3.37; E 1.81; C 3.57; L 3.55; Y 2.63; N 3.13; T 3.91; Q 2.56
S1: Y 3.3; E 1.75; D 2.52; M 2.15; H 2.21; R 2.98; Q 1.76; N 2.42; K 3.01; P 2.84; A 3.07; T 3.26
T6: A 2.79; D 3.22; E 2.56
D2: T 3.29; L 3.05; N 3.57; G 2.84; H 2.72; Q 3.58; E 3.11; S 3.14; C 3.12; M 1.27; Y 3.72; A 3.55
C5: R 3.13; F 2.08; Q 3.77; D 2.59; H 2.97; M 3.18; I 3.26; V 3.65; K 2.39; L 3.9; A 1.58
D3: P 3.01; K 3.76; Y 4; L 2.58; V 3.3; I 1.7; Q 2.69; G 3.28; N 2.68; A 2.55
